The text below walks through data of patent US11673916B2, “Neuroprotective peptides and methods of their use” (University of Pittsburgh—Of the Commonwealth System of …, priority 2020, dated 2023).

The assay deals with T1, endogenous Kv2.1 channels (Rattus norvegicus, UniProt P15387).
T1 construct: in order to visualize the distribution of endogenous Kv2.1 channels; endogenous in cells; host or cells: primary rat cortical neurons
T1 sequence (P15387 1-857): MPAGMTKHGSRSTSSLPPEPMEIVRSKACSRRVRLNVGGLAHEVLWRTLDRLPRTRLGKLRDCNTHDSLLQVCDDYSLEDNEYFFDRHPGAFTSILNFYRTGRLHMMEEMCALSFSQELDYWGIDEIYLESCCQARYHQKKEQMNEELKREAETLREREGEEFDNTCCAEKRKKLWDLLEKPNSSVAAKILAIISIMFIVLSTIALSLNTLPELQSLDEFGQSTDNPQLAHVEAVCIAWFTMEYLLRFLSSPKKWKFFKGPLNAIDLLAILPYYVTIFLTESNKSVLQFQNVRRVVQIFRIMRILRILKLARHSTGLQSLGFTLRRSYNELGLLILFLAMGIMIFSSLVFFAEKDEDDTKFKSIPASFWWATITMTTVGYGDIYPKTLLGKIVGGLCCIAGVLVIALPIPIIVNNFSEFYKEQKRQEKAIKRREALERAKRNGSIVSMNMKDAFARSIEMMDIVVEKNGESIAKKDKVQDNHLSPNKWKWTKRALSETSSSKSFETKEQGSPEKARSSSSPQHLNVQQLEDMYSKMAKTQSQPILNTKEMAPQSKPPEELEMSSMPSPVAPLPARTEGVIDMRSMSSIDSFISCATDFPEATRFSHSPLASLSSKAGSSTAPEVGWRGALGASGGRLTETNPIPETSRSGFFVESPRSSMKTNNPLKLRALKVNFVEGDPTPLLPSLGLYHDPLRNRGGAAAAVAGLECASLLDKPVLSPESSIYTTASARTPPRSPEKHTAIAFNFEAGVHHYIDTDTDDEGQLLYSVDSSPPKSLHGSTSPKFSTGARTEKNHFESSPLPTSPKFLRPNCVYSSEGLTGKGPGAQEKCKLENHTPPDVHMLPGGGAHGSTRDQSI
In words: Immunocytochemistry of endogenous Kv2.1 channel clusters in fixed cortical neurons. Format: cell-based. The conditions noted are these: 10 μM, three-hour treatment, mean±SEM (FIG. 10B). Here is the method: The in vitro Kv2.1 immunofluorescence experiment (FIG. 10) was carried out in DIV 21-26 primary rat neuronal cultures, as described above. Each coverslip was treated with either TAT-DP-2 or TAT-Sc-2 in its individual well to reach a final concentration of […] 3 hours, coverslips were transferred to PBS and immediately fixed with 4% paraformaldehyde/4% sucrose for 15 minutes. Coverslips were rinsed with PBS 3 times and then permeabilized with 0.25% triton-X-100 for 15 minutes. Cells were rinsed with PBS 3 times and then blocked with 2% BSA/10% normal goat serum for 1 hour at room temperature. […]
To analyze Kv2.1 distribution in live primary cortical neurons, cells were transfected with both a tdTomato construct and a GFP-tagged Kv2.1 construct (O'Connell, et al., J Neurosci. 26: 9609-9618, 2006) and imaged on a Nikon A1+ confocal microscope (Nikon, Tokyo, Japan). […] For live images of transfected neurons, object count parameters were customized to define a Kv2.1 cluster as an area of high intensity GFP fluorescence (compared to background), measuring 0.05 μm^2 or larger (Schulien et al., J Physiol (Lond). 594: 2647-2659, 2016). Kv2.1 cluster density was calculated by normalizing the number of Kv2.1 clusters counted to the somatic area of each neuron (#Kv2.1 clusters/μm^2). […]

For “YGRKKRRQRRRDFSSIST [TAT-Sc-2, TAT-linked scramble control peptide]”, the “mean Kv2.1 surface cluster density (endogenous channels)” value is listed as 0.056±0.005 #Kv2.1 clusters/μm^2 of neuronal soma.

On to “YGRKKRRQRRRSIDSFTS [TAT-DP-2, TAT-linked declustering peptide 2]”, for which the “mean Kv2.1 surface cluster density (endogenous channels)” value is 0.030±0.003 #Kv2.1 clusters/μm^2 of neuronal soma.
